Data from patent US20190203248A1 (Bristol-Myers Squibb, published 2019).
One block for each binder: values may come before it.

Experiments:
human β-klotho [1] = target: T1, human β-klotho (human, UniProt Q86Z14 1-1044); assay: cell-based or functional assay
[2] = target: T2, β-klotho of differentiated 3T3-L1 adipocytes (mouse, UniProt Q99N32 1-1043); assay: cell-based or functional assay
T2 sequence (looked up): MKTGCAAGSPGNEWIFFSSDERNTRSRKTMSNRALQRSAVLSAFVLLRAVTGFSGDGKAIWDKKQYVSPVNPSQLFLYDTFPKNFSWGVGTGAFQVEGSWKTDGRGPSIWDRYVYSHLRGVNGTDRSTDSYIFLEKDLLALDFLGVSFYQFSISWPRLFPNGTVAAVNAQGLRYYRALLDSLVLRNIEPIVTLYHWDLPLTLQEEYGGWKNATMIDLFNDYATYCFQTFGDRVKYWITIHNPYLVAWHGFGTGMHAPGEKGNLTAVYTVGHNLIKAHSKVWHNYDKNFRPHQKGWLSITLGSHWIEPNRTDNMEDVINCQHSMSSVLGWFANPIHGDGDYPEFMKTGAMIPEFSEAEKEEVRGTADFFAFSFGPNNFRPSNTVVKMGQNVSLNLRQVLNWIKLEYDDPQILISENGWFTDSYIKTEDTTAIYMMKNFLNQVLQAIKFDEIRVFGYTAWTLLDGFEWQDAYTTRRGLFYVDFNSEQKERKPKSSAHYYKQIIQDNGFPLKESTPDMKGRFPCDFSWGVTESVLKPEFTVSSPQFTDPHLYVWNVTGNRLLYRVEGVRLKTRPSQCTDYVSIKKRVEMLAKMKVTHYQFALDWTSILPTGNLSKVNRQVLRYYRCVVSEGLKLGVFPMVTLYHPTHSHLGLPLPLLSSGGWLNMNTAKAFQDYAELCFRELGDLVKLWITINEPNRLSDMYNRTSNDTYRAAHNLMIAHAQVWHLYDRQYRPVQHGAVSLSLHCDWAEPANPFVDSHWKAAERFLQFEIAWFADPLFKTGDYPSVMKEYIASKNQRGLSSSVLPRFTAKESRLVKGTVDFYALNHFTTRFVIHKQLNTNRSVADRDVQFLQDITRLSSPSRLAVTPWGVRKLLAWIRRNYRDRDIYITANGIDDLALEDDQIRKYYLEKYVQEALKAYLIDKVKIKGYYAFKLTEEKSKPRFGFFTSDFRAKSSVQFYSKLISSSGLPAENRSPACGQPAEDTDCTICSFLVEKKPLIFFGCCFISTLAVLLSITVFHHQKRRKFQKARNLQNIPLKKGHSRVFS

human serum albumin [3] = target: T3, human serum albumin (human, UniProt P02768 25-609); assay: SPR (Biacore T100), HSA immobilized, 25 C, 30 µl/min
T3 construct: also called HSA; HuSA
Experimental: (§1) Serum albumins were dissolved in PBS buffer (10 mM sodium phosphate, 130 mM sodium chloride, pH 7.1) to a concentration of 10 mg/ml, and subsequently diluted to 8-10 μg/ml in 10 mM sodium acetate pH 5.0 for immobilization. Serum albumins were immobilized on a Series S CM5 sensor chip using standard ethyl(dimethylaminopropyl) carbodiimide (EDC)/N-hydroxysuccinimide (NHS) chemistry in HBS-EP+ running buffer at 25° C., following general manufacturer guidelines. Flow cell 1 was activated with EDC/NHS and blocked with ethanolamine. […] Kinetic experiments were performed in PBS buffer containing 0.05% tween-20 (running buffer) at either 25° C. or 37° C. […] These samples were injected across flow cells 1-4 for 300 s, with a 420 s dissociation time, at flow rates of 30 μl/min or 60 μl/min to check for mass transfer limitation. All surfaces were regenerated with 2 pulses of 10 mM glycine pH 2.0 at 30 μl/min for 30 s. Raw sensograms were “double-referenced” by subtracting flow cell 1 data from flow cell 2, 3 or 4 data, and then subtracting a separate buffer cycle from each sensogram. The double-referenced sensogram data was fitted to a 1:1 Langmuir model using Biacore T100 Evaluation software version 2.0.2 to determine the association rate constant (ka), the dissociation rate constant (kd), and the equilibrium dissociation constant (KD).

murine serum albumin [4] = target: T4, murine serum albumin (mouse, UniProt P07724 25-608); assay: SPR (Biacore T100), immobilized MuSA, analyte series 1000 to 62.5 nM, 37 C
T4 construct: also called MuSA; mouse serum albumin
T4 sequence (P07724 25-608 limits assumed): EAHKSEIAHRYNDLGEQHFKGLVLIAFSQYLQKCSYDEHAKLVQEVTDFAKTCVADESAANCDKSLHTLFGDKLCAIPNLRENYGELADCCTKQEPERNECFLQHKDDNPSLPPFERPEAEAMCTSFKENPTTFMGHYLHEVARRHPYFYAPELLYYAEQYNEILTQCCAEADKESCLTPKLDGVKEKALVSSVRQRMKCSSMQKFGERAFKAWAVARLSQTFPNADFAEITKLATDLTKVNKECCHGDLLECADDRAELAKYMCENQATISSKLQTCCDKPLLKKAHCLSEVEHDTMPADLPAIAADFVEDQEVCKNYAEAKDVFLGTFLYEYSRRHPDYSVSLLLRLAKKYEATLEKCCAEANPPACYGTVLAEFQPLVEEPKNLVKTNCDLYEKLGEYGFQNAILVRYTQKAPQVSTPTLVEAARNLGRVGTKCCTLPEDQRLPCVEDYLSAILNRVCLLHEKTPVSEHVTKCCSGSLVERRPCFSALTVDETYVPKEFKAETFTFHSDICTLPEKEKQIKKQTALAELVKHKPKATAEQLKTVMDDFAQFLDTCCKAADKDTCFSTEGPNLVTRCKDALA
Experimental: as §1

human serum albumin [5] = target: T3, human serum albumin; assay: SPR (Biacore T100), HSA immobilized, 37 C, 30 µl/min
Experimental: as §1

[6] = target: T5, cynomolgous monkey serum albumin (cynomolgous monkey, UniProt A2V9Z4 25-608); assay: SPR (Biacore T100), CySA immobilized, 37 C, 30 µl/min
T5 construct: also called CySA
T5 sequence (A2V9Z4 25-608 limits assumed): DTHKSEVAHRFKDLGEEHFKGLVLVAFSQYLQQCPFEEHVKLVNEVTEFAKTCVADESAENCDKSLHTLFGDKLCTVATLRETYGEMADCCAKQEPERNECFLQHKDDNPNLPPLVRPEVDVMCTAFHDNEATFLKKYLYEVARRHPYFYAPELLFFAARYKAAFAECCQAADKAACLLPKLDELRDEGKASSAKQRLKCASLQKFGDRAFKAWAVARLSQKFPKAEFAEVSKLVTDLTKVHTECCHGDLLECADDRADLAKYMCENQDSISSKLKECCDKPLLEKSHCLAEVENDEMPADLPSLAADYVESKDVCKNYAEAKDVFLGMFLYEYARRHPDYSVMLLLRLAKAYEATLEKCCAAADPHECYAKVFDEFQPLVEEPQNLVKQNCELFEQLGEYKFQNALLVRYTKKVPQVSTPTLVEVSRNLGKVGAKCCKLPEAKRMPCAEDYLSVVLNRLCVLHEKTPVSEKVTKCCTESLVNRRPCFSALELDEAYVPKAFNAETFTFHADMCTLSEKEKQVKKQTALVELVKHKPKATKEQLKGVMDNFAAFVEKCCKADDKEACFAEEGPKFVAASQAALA
Experimental: as §1

human serum albumin [7] = target: T3, human serum albumin; assay: isothermal titration calorimetry, 37 C, PBS
Experimental: SABA-FGF21 fusion protein plus buffer was placed in the instrument sample cell at a concentration range of 0.4 to 1.0 mg/mL protein. The matching buffer was placed in the reference cell. Concentrations were determined using extinction coefficients calculated from the protein sequences of the pure proteins. The instrument reaction cell was equilibrated at 37° C. […] The resultant thermogram data was fitted using Origin™ evaluation software package (Microcal Inc.) version 2.0.2 to estimate the stochiometry, enthalpy, and equilibrium disassociation constant (KD) of the protein—protein binding reaction.

[8] = target: T5, cynomolgous monkey serum albumin; assay: SPR (Biacore T100), CySA immobilized, 25 C, 30 µl/min
Experimental: as §1

human β-klotho [9] = target: T1, human β-klotho; assay: cell-based or functional assay; remark: listed apart in the source
murine serum albumin [10] = target: T4, murine serum albumin; assay: SPR (Biacore), albumin immobilized on CM5 chip
Experimental: In addition, binding to albumin was carried out under various pH conditions ranging from pH 5.5 to pH 7.4.

rhesus serum albumin [11] = target: T6, rhesus serum albumin (rhesus, UniProt Q28522 17-600); assay: comment in summary table
T6 construct: also called RhSA
T6 sequence (Q28522 17-600 limits assumed): as the sequence (A2V9Z4 25-608 limits assumed) above

rhesus serum albumin [12] = target: T6, rhesus serum albumin; assay: binding kinetics, HBS-P buffer, 37 C against 25 C
human serum albumin [13] = target: T3, human serum albumin; assay: binding kinetics, HBS-P buffer, 37 C against 25 C
human serum albumin [14] = target: T3, human serum albumin; assay: binding kinetics, HBS-P buffer, 25 C; 25 C, HBS-P buffer
rat serum albumin = rat serum albumin (rat, UniProt P02770 25-608); assay: direct binding ELISA on plate-coated albumin, absorbance 450 nm
rat serum albumin, sequence (P02770 25-608 limits assumed): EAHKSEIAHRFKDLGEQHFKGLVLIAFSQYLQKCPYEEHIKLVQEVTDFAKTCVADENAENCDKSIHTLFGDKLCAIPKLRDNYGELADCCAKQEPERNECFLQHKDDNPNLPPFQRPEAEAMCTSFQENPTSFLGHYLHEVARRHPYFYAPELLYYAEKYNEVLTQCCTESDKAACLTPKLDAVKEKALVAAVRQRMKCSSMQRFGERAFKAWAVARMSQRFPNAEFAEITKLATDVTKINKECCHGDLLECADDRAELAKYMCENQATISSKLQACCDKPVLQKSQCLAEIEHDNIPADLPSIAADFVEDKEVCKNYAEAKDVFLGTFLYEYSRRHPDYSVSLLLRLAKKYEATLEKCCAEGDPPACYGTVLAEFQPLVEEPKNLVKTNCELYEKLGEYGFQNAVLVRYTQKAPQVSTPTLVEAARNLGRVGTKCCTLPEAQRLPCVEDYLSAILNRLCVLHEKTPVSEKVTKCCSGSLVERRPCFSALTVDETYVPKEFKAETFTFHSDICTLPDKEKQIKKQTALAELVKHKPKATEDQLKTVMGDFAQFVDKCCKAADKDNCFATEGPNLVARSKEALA
Experimental: (§2) For dose response assays, concentrations ranging from 0.1 nM up to 1 μM were used. After washing in PBST to remove unbound Adnectins™, anti-His mAb-HRP conjugate (R&D Systems, MN) diluted 1:2500 in casein block buffer was added to the bound His-tagged Adnectins™ for 1 hour at room temperature. Excess conjugate was removed by washing with PBST and bound Adnectins™ detected using TMB detection reagents (BD Biosciences) according to the manufacturer's instructions.

human serum albumin [15] = target: T3, human serum albumin; assay: as above
Experimental: as §2

murine serum albumin [16] = target: T4, murine serum albumin; assay: as above
Experimental: as §2

rhesus serum albumin [17] = target: T6, rhesus serum albumin; assay: binding kinetics, MES buffer, pH 7.4
human serum albumin [18] = target: T3, human serum albumin; assay: binding kinetics, MES buffer, pH 7.4
rhesus serum albumin [19] = target: T6, rhesus serum albumin; assay: binding kinetics, MES buffer, pH 5.5
human serum albumin [20] = target: T3, human serum albumin; assay: binding kinetics, MES buffer, pH 5.5
rhesus serum albumin [21] = target: T6, rhesus serum albumin; assay: binding kinetics, HBS-P buffer, 37 C
human serum albumin [22] = target: T3, human serum albumin; assay: binding kinetics, HBS-P buffer, 37 C
rhesus serum albumin [23] = target: T6, rhesus serum albumin; assay: binding kinetics, HBS-P buffer, 25 C
human serum albumin [24] = target: T3, human serum albumin; assay: binding kinetics, HBS-P buffer, 25 C

EC50 (nM), pERK 1/2 assay in HEK β-Klotho expressing stable cells (human β-klotho [1]): 102 nM | EC50 (nM), pERK assay in 3T3-L1 adipocytes [2]: 11 nM | Fold Activation, pERK assay in 3T3-L1 adipocytes [2]: 1.8 fold | Kd (human serum albumin [3]): 0.098 µM | koff (human serum albumin [3]): 0.000333 s⁻¹ | kon (human serum albumin [3]): 3380 M⁻¹ s⁻¹ | binding result (murine serum albumin [4]): no binding (tested: 1000 nM) | Kd (human serum albumin [5]): 0.19 µM | koff (human serum albumin [5]): 0.00111 s⁻¹ | kon (human serum albumin [5]): 5960 M⁻¹ s⁻¹ | Kd [6]: 2.8 µM | koff [6]: 0.0123 s⁻¹ | kon [6]: 4440 M⁻¹ s⁻¹ | Kd (human serum albumin [7]): 0.0038 µM | ΔH (human serum albumin [7]): -64.3 kJ/mol | Kd [8]: 1.2 µM | koff [8]: 0.0047 s⁻¹ | kon [8]: 3930 M⁻¹ s⁻¹ | fold shift of potency (EC50) relative to His-tagged FGF21, pERK 1/2 assay (human β-klotho [9]): ~15 fold
B1: SABA1-FGF21v1 (designed binder)
chain: MGVSDVPRDLEVVAATPTSLLISWHSYYEQNSYYRITYGETGGNSPVQEFTVPYSQTTATISGLKPGVDYTITVYAVYGSKYYYPISINYRTEIEKPSQGSGSGSGSGSGSGSPIPDSSPLLQFGGQVRQRYLYTDDAQQTEAHLEIREDGTVGGAADQSPESLLQLKALKPGVIQILGVKTSRFLCQRPDGALYGSLHFDPEACSFRELLLEDGYNVYQSEAHGLPLHLPGNKSPHRDPAPRGPARFLPLPGLPPALPEPPGILAPQPPDVGSSDPLSMVGPSQGRSPSYAS
notes: Fusion: SABA core 1 with AdNT1 leader and AdCT7 tail, (GS)7 linker, FGF21 core with FNT3 leader and C-terminal S; also called SABA-FGF21v1 fusion; SABA1-FGF21 variant 1

binding result (murine serum albumin [10]): no binding | binding result (rhesus serum albumin [11]): binds
B2: SABA5.1 (designed binder)
chain: MGVSDVPRDLEVVAATPTSLLISWEDDSYYSRYYRITYGETGGNSPVQEFTVPSDLYTATISGLKPGVDYTITVYAVTYDVTDLIMHEPISINYRTEIDKPSQHHHHHH
notes: His6-tagged Adnectin core 5; same BC, DE and FG loops as SABA4

ratio of affinity at 37 C against 25 C (rhesus serum albumin [12]): 0.5 fold | fold increase in affinity at 37 C against 25 C (human serum albumin [13]): ~2 fold | kon (human serum albumin [14]): 8210 M⁻¹ s⁻¹ | binding result (rat serum albumin): no binding (tested: 1000 nM) | EC50 (read off the curve) (human serum albumin [15]): ~0.007 µM | binding result (murine serum albumin [16]): no binding (tested: 1000 nM) | Kd (rhesus serum albumin [17]): 0.479 µM | koff (rhesus serum albumin [17]): 0.00295 s⁻¹ | kon (rhesus serum albumin [17]): 6160 M⁻¹ s⁻¹ | Kd (human serum albumin [18]): 0.0419 µM | koff (human serum albumin [18]): 0.000388 s⁻¹ | kon (human serum albumin [18]): 9260 M⁻¹ s⁻¹ | Kd (rhesus serum albumin [19]): 0.359 µM | koff (rhesus serum albumin [19]): 0.00272 s⁻¹ | kon (rhesus serum albumin [19]): 7570 M⁻¹ s⁻¹ | Kd (human serum albumin [20]): 0.0286 µM | koff (human serum albumin [20]): 0.00027 s⁻¹ | kon (human serum albumin [20]): 9440 M⁻¹ s⁻¹ | Kd (rhesus serum albumin [21]): 0.977 µM | koff (rhesus serum albumin [21]): 0.0185 s⁻¹ | kon (rhesus serum albumin [21]): 18900 M⁻¹ s⁻¹ | Kd (human serum albumin [22]): 0.0241 µM | koff (human serum albumin [22]): 0.000815 s⁻¹ | kon (human serum albumin [22]): 33800 M⁻¹ s⁻¹ | Kd (rhesus serum albumin [23]): 0.58 µM | koff (rhesus serum albumin [23]): 0.00378 s⁻¹ | kon (rhesus serum albumin [23]): 6600 M⁻¹ s⁻¹ | Kd (human serum albumin [24]): 0.0553 µM | koff (human serum albumin [24]): 0.000443 s⁻¹
B3: SABA1.2 (designed binder)
chain: MGVSDVPRDLEVVAATPTSLLISWHSYYEQNSYYRITYGETGGNSPVQEFTVPYSQTTATISGLKPGVDYTITVYAVYGSKYYYPISINYRTEIEDEDEDEDED
notes: also called core 1 10Fn3 comprising an (ED)5 extension
